The labels stand for the following.
B8: PEX14 NTD (1-104) (domain or fragment)
chain: MASSEQAEQPSQPSSTPGSENVLPREPLIATAVKFLQNSRVRQSPLATRRAFLKKKGLTDEEIDMAFQQSGTAADEPSSLGPATQVVPVQPPHLISQPYSPAGS
B10: PEX13 SH3-CTR (261-403) (domain or fragment)
chain: VTDSINWASGEDDHVVARAEYDFAAVSEEEISFRAGDMLNLALKEQQPKVRGWLLASLDGQTTGLIPANYVKILGKRKGRKTVESSKVSKQQQSFTNPTLTKGATVADSLDEQEAAFESVFVETNKVPVAPDSIGKDGEKQDL

For assay [1], the target named is T1, PEX13 SH3 (261-346) (human, UniProt Q92968 261-346).
T1 sequence: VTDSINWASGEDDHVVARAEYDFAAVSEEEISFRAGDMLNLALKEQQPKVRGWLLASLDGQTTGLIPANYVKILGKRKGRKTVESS
Nature of the assay: ITC.

For assay [2], the target named is T1, PEX13 SH3 (261-346). Nature of the assay: NMR titration.
The target in assay [3] is B10. Put plainly: NMR titration.
Assay [4] addresses B8. Nature of the assay: ITC. Background: Isothermal titration calorimetry measures the heat released or taken up as one component is titrated into another.
Assay [5] deals with B10. Nature of the assay: ITC.

As a reminder, the Kd is the concentration at which binding is half-saturated. Low readings indicate a tighter complex, high ones a looser complex. The stoichiometry N is a count of units in the complex or per binding partner.

B1: PEX13 C-terminal peptide FxxxF to PEX5 W4 (domain or fragment)
chain: QQQSFTNPTLTKGATVADSLDEQEAAWYDEYVETNKVPVAPDSIGKDGEKQDL
Take B1: in assay [1], the Kd is about 6 µM and the “stoichiometry N” value came to 1.

B2: PEX13 PxxP peptide (49-61) (peptide)
peptide: TRVPPPILPRPSQ
As to B2, the binding result in assay [2] and in assay [3] was “binds” each time.

B3: PEX5 W3 (peptide)
peptide: VSPARWAEEYLEQSE
As to B3, in assay [4], the binding result was “binds”.

B4: PEX5 W4 (peptide)
peptide: TATDRWYDEYHPEED
In turn, B4 displayed a Kd in assay [4] of 3140 nM.

B5: PEX5 W2 (peptide)
peptide: YNETDWSQEFISEVT
Take B5: the binding result in assay [4] is listed as “binds”.

B6: PEX5 W5 (peptide)
peptide: AQAEQWAAEFIQQQG
Regarding B6, the binding result in assay [4] was “binds”.

B7: PEX5 W1 (peptide)
peptide: ALSENWAQEFLAAGD
Regarding B7, the binding result in assay [4] is “binds”. Regarding B8, the Kd in assay [5] stood at 5.4 µM.

B9: PEX13 FxxxF (350-403) (domain or fragment)
chain: KQQQSFTNPTLTKGATVADSLDEQEAAFESVFVETNKVPVAPDSIGKDGEKQDL
On to B9, for which, in assay [1], the Kd came out at 27 µM. Further, in assay [4], the Kd was determined as 2800 nM and the “stoichiometry N” value came out at 1.

On to B10, for which the “stoichiometry N” value in assay [4] amounted to 1.

B11: PEX5 W7 (peptide)
peptide: AEAHPWLSDYDDLTS
As to B11, the binding result in assay [4] was “binds”.

B12: PEX5 W6 (peptide)
peptide: GTSDAWVDQFTRPVN
Turning to B12, the binding result in assay [4] is on record as “binds”.

Source of the values: article doi:10.1101/2022.12.19.520972 (bioRxiv, 2022).
